# Source: patent US7741066B2, “Phosphorylated p68 RNA helicase as a marker for cancer and cancer metastasis” (priority 2005, dated 2010)
# Columns and labels:
# [1] = test system: p68 RNA helicase tyrosine phosphorylation; test: Tyrosyl phosphorylation of p68 RNA helicase in cancer cells after treatment (immunoprecipitation with PAbp68, Western Blot with p-tyr-100); format: cell-based, human
# Description: After the tissue samples were homogenized, the protein extracts were made from the homogenized sample. The tissue was screened for phosphorylated p68 RNA helicase in two steps. In the first step, the polyclonal antibody PAbp68 was used to isolate p68 RNA helicase from the extracts. In the second step, the antibody p-tyr-100 was used to detect the phosphorylated p68 RNA helicase from the total isolated p68 RNA helicase by the Western Blot. The intensity of the Western Blot signal by the antibody p-tyr-100, in the second step, corresponds to the level of phosphorylated p68 RNA helicase in the sample.
# The Western Blots were carried out using antibody p68-rgg (top panel in FIG. 3A-3D) and antibody p-tyr-100 (bottom panel in FIGS. 3A-3D). The p68 RNA helicase was immunoprecipitated by antibody PAbp68.
# [2] = test system: p68 RNA helicase threonine phosphorylation; test: Threonine phosphorylation of p68 RNA helicase in cancer cells after treatment (immunoprecipitation, Western Blot with 14B3); format: cell-based, human; conditions: for threonine phosphorylation of p68 RNA helicase upon longer treatment: 30 minutes treatment, data not shown; for threonine phosphorylation of p68 RNA helicase upon treatment: six different cancer cell lines, Western Blot 14B3
# Experimental: The presence of phosphorylated p68 RNA helicase in cultured cells or tissue samples was examined using immunoprecipitation followed by Western Blots. Immunoblotting also was also performed with a monoclonal antibody against p68 RNA helicase to show the equal amounts or levels of p68 (phosphorylated and unphosphorylated) loaded in the western blotting. Such Western Blots include the use of antibodies to phosphorylated p68 RNA helicase and sodium dodecyl sulphate polyacrylamide gel electrophoresis (SDS-PAGE). Immunoblotting also was performed with a monoclonal antibody against p68 RNA helicase to show the presence of a positive control protein in tumor and normal samples and to indicate that there was no evidence of protein degradation in any of the tissue samples.
# A polyacrylamide gel system was employed for separation of proteins. The cell nuclear extracts (80 μl) were diluted to 200 μl with RIPA buffer (160 mM NaCl, 20 mM Tris-HCl, pH 7.5, 1 mM EDTA, 1 mM EGTA, 1 mM DTT, 0.1% Triton X-100, 1% sodium deoxycholate, 0.1% SDS, 1 mM sodium vanadate, and 1 mM PMSF). The antibody PAbp68 then was added to the mixture. The solution subsequently was incubated at 4° C. for 4 hours. Protein A agarose bead slurry (40 μl) then was added and the mixture underwent rotation. The beads were recovered and washed with 5×600 μl RIPA buffer with 0.08% SDS. The precipitated proteins were analyzed by SDS-PAGE followed by Western Blot.
# The Western Blot analysis was performed with a commercially available ECL Western Blot and detection kit (Amersham Biosciences). The supernatant from the culture medium of hybridoma cells P68-rgg were used in the blotting experiments at a 5:1 dilution. The polyclonal antibody PAbp68 was used in 1:3000 dilution. The antibodies, PY100 and 14B3 were used with 1:2000 dilution.
# The phosphorylation of p68 RNA helicase was investigated using HeLA S3, A549, HEL299, CCD-112CoN, HepG2, and MCF-7 cells. The HeLa S3 and A549 cells were grown in Ham's F12K medium supplemented with 10% fetal bovine serum. The HEL299, CCD-112CoN, HepG2, and MCF-7 cells were maintained in minimum essential medium supplemented with 10% fetal bovine serum. The culture medium contained 2 mM L-glutamine and Earle's BSS adjusted to contain 1.5 g/l of sodium bicarbonate, 0.1 mM of non-essential amino acids, and 1.0 mM sodium pyruvate. The Caco-2 cells were grown in a similar medium condition to that of HEL299 cells but supplemented with 20% fetal bovine serum. The RPMI 1788 and K562 cells were grown in Iscove's modified Dulbecco's medium supplemented with 10% fetal bovine serum. The HEK293 and Hs 578Bst cells were grown in modified Dulbecco's medium containing 10% fetal bovine serum. All cell culture medium contained penicillin (100 U/ml) and streptomycin (100 μg/ml). The cells were grown to 90% confluency prior to performing any experiment.
# The phosphorylations of p68 RNA helicase responded differently to different anticancer treatments.
# FIGS. 2A and 2B show Western Blots of immunoprecipitated cellular p68 RNA helicase from different cancer cells (indicated). The immuno-blots were carried out using antibody p68-rgg (FIG. 2, top panel in A and B), antibody p-tyr-100 (middle panel in A and B), and antibody 14B3 (FIG. 2, bottom panel in A and B). The + and − represent with or without TNF-α or TRAIL treatments. Tyrosine dephosphorylation and threonine phosphorylation of p68 RNA helicase was present in cancer cells upon the panel (A) TNF-α or panel (B) TRAIL treatments.
# [3] = six different cancer cell lines (A549, Caco-2, HepG2, K562, MCF-7, HeLa S3), Western Blot p-tyr-100
Compound,tyrosyl phosphorylation of p68 RNA helicase upon treatment ([1]; HeLa cells),"tyrosine phosphorylation of p68 RNA helicase upon treatment [1, 3]",threonine phosphorylation of p68 RNA helicase upon longer treatment [2],threonine phosphorylation of p68 RNA helicase upon treatment [2],tyrosine phosphorylation of p68 RNA helicase upon treatment ([1]; MCF-7 breast cancer cells)
TNF-α,could be dephosphorylated,led to the dephosphorylation of p68 at tyrosine residue(s),quickly dephosphorylated again,resulted in phosphorylation of p68 at threonine,
TRAIL: TNF Related Apoptosis-Inducer Ligand,,led to the dephosphorylation of p68 at tyrosine residue(s),quickly dephosphorylated again,resulted in phosphorylation of p68 at threonine,
"Cc1ccc(NC(=O)c2ccc(CN3CCN(C)CC3)cc2)cc1Nc1nccc(-c2cccnc2)n1 [STI-571, reference compound]",,,,,decreases in the tyrosine phosphorylation level rather than complete dephosphorylation
"COc1cc([C@@H]2c3cc4c(cc3[C@@H](O[C@@H]3O[C@@H]5CO[C@@H](C)O[C@H]5[C@H](O)[C@H]3O)[C@H]3COC(=O)[C@H]23)OCO4)cc(OC)c1O [etoposide, reference compound]",,tyrosyl dephosphorylation was not observed,,Threonine phosphorylation was not detected,
"CC(=O)O[C@H]1C(=O)[C@@]2(C)[C@H]([C@H](OC(=O)c3ccccc3)[C@]3(O)C[C@H](OC(=O)[C@H](O)[C@@H](NC(=O)c4ccccc4)c4ccccc4)C(C)=C1C3(C)C)[C@]1(OC(C)=O)CO[C@@H]1C[C@@H]2O [TAXOL®, reference compound]",,tyrosyl dephosphorylation was not observed,,Threonine phosphorylation was not detected,
